Common to all, as to assay: flow cytometry on transfected HEK293 cells
Background: A flow cytometer gives signals particle by particle.

Assay [1] deals with T1, N-terminal FLAG-tagged cynomolgus monkey ROBO4, cynoROBO4-1 (pCI-FLAG-cynoROBO4-1) (cynomolgus monkey, UniProt Q8WZ75 28-1007 (human entry)).
T1 chain: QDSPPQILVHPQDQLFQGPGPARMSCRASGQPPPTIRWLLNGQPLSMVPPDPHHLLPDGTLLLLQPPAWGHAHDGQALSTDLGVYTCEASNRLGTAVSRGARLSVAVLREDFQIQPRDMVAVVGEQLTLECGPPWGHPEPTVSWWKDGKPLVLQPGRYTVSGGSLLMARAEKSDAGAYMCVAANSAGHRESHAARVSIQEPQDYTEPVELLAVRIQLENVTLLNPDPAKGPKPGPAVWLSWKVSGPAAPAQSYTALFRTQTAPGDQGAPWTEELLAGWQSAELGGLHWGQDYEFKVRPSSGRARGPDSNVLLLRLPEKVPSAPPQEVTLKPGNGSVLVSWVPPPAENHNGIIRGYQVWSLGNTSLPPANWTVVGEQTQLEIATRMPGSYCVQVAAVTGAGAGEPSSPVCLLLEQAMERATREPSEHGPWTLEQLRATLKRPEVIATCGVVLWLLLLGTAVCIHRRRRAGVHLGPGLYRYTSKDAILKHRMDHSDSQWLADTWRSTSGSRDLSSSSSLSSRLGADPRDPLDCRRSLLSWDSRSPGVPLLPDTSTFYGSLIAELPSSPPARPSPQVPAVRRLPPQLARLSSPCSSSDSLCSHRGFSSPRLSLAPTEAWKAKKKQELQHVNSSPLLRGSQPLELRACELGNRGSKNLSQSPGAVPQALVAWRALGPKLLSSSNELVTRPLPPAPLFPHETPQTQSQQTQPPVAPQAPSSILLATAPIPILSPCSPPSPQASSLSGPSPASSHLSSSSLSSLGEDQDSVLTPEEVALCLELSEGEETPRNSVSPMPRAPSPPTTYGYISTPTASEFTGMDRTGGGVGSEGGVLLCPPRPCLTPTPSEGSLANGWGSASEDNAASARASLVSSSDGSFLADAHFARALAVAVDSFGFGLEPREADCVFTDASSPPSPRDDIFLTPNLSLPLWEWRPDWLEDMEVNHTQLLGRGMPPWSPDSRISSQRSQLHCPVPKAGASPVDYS

Assay [2] concerns the target T2, N-terminal FLAG-tagged cynomolgus monkey ROBO4, cynoROBO4-2 (pCI-FLAG-cynoROBO4-2) (cynomolgus monkey, UniProt Q8WZ75 28-1007 (human entry)).
T2 chain: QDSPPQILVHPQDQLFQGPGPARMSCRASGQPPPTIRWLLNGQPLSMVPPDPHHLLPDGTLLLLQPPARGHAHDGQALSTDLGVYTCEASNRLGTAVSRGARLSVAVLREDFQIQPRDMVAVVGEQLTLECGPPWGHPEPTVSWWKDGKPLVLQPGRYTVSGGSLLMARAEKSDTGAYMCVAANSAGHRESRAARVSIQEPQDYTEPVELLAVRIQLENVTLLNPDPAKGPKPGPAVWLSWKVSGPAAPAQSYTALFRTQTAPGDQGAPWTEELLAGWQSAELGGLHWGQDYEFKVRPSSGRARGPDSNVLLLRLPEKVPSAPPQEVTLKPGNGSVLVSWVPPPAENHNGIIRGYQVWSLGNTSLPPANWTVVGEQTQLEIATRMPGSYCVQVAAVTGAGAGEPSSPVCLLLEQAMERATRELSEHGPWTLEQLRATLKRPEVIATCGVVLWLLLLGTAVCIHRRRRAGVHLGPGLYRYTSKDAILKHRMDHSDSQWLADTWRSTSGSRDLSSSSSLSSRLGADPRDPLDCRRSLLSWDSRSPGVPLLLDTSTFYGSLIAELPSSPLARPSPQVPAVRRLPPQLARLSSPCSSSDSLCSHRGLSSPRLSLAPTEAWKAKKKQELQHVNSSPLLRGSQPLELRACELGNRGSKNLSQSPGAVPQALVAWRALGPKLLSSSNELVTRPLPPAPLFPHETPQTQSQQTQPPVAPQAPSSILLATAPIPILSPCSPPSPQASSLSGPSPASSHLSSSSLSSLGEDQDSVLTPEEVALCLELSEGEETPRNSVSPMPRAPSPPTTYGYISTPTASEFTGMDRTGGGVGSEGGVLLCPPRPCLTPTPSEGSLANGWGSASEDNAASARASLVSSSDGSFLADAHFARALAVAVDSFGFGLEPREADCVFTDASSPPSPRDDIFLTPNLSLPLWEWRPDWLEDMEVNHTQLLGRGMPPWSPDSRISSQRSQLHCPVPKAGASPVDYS

Assay [3] concerns the target N-terminal FLAG-tagged human ROBO1 (pCI-FLAG-hROBO1-transfected HEK293 cells) (human, UniProt Q9Y6N7 58-1651).

Chain of N-terminal FLAG-tagged human ROBO1 (pCI-FLAG-hROBO1-transfected HEK293 cells) (Q9Y6N7 other isoform, or with tags, fused parts or gaps): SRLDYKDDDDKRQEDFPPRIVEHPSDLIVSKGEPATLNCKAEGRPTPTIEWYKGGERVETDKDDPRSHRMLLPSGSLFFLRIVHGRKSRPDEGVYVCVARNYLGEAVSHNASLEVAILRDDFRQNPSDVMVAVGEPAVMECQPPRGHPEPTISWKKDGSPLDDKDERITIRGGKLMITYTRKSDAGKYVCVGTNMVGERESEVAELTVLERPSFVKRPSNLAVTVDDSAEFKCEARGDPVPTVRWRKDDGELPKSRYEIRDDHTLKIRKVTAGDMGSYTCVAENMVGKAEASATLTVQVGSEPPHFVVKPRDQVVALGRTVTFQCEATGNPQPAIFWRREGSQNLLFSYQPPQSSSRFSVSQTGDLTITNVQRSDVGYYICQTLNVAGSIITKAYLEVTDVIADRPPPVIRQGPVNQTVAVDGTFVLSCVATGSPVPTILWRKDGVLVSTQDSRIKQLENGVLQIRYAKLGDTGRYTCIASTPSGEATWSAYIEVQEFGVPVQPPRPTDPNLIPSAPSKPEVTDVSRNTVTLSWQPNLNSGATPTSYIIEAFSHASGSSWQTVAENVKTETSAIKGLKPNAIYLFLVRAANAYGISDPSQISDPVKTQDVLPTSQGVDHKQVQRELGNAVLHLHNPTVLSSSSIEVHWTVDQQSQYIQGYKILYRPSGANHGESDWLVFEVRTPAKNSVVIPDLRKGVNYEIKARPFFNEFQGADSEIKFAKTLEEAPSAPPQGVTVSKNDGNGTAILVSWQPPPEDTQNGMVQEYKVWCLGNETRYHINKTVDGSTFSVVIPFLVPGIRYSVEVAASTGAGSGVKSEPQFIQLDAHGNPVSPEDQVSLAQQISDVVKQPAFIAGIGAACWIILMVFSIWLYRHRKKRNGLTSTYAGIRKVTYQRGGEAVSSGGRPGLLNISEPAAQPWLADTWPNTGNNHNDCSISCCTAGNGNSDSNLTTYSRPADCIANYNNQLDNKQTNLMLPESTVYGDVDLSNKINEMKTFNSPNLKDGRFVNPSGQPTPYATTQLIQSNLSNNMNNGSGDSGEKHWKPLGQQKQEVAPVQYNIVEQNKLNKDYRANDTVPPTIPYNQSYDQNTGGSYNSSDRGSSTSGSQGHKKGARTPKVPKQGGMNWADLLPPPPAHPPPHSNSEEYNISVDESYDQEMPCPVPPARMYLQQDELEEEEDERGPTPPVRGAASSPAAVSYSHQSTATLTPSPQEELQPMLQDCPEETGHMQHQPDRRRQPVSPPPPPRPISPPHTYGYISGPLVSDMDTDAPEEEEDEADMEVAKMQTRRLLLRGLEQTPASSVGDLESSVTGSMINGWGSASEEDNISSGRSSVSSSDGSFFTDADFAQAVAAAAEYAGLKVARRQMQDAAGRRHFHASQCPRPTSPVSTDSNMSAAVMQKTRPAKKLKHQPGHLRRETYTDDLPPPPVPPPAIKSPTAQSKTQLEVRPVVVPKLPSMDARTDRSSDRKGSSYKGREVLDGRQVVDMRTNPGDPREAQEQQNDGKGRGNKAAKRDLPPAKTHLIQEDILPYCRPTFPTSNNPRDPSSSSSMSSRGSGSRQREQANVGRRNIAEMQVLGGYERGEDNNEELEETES

B1: humanized MAb1 antibody H-1140 (antibody, human IgG2, kappa, V domains shown)
VH: EVQLVESGGGLVQPGGSLRLSCAASGFTFSTYAMSWVRQAPGKGLEWVATISQGGTYTYYPDSVKGRFTISRDNAKNTLYLQMNSLRAEDTAVYYCARLIYYDYLDYWGQGTLVTVSS
VL: DIVMTQSPLSLPVTLGEPASISCRSSQSLENSNGNTYLNWYLQKPGQSPQLLIYRVSNRFSGVPDRFSGSGSGTDFTLKISRVEAEDVGVYYCLQVTHVPWTFGPGTKVDIKR
notes: Human IgG2 / kappa constant regions; also called hMAb1-H2-type heavy chain + hMAb1-L1-type light chain
For B1, the binding result in assay [1] is recorded as “binds”; in assay [2] it was “binds”; in assay [3], “no binding (tested: 10 µg/mL (method of 4)-4-2))”.
